Values belong to the molecule of their own block, whether it stands above or below them.
Tests used:
[1] = target: recombinant factor X (rFX), expressed in CHO cells from human factor X cDNA (human) (UniProt P00742); assay: cell-based or functional assay
[2] = target: T1, recombinant FX deletion mutant having the furin cleavage site Arg-Val-Thr-Arg/Ile (rFXΔ^RVTR/I)
T1 chain: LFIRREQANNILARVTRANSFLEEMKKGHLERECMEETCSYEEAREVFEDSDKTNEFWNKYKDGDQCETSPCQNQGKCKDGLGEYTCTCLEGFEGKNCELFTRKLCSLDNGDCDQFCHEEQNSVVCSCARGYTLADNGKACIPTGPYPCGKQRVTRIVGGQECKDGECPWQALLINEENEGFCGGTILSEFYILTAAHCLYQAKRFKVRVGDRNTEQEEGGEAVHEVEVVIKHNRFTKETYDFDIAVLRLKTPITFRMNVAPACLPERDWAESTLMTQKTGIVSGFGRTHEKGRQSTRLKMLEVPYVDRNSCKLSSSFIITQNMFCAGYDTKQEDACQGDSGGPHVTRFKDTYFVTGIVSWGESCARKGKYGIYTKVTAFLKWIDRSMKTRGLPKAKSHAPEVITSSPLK

- functional portion of rFX (%), incubation 0 days [1]: 61%
- functional portion of rFX (%), incubation 1 day [1]: 73%
- functional portion of rFX (%), incubation 2 days [1]: 79%
- functional portion of rFX (%), incubation 3 days [1]: 81%
- functional portion of rFX (%), incubation 4 days [1]: 86%
Molecule: rfurin ÿTM6xHis (r-furin derivative, as CHO cell culture supernatant; patent application EP 0 775 750) (from UniProt P09958 108-707) (enzyme)

B1: r-furinÿCys-spacer-10xHis (purified r-furin derivative; patent application EP-0 775 750-A2) (protein)
chain: DVYQEPTDPKFPQQWYLSGVTQRDLNVKAAWAQGYTGHGIVVSILDDGIEKNHPDLAGNYDPGASFDVNDQDPDPQPRYTQMNDNRHGTRCAGEVAAVANNGVCGVGVAYNARIGGVRMLDGEVTDAVEARSLGLNPNHIHIYSASWGPEDDGKTVDGPARLAEEAFFRGVSQGRGGLGSIFVWASGNGGREHDSCNCDGYTNSIYTLSISSATQFGNVPWYSEACSSTLATTYSSGNQNEKQIVTTDLRQKCTESHTGTSASAPLAAGIIALTLEANKNLTWRDMQHLVVQTSKPAHLNANDWATNGVGRKVSHSYGYGLLDAGAMVALAQNWTTVAPQRKCIIDILTEPKDIGKRLEVRKTVTACLGEPNHITRLEHAQARLTLSYNRRGDLAIHLVSPMGTRSTLLAARPHDYSADGFNDWAFMTTHSWDEDPSGEWVLEIENTSEANNYGTLTKFTLVLYGTAPEG
- processing/activation of rFXΔ^RVTR/I (Western blot; 6, 24, 48, 72 hours at 37° C.) [2]: In the presence of the r-furin derivative (FIG. 10A), a 35 kD protein band appears already after 6 hours of incubation (lane 5), which corresponds to the form of the FX heavy chain

From patent publication US6905846
